The target of the experiment is T1, GST–PAH1 (amino acids 34–108) (mouse (as mSin3b), UniProt Q62141 34-108).
T1 sequence (looked up): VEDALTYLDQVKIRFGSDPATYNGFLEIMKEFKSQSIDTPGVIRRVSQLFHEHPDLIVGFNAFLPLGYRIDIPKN
Kind of experiment: pull-down.

As to SAAMGSAEAEALVALLFLSEE [protG-P1-8 Phe9 to alanine], the binding result is recorded as “binds”.

Take SAAMGSAEFEALVALLFLSEE [protG-P1-8 (P1-8 fused to the GB1 domain of streptococcal protein G)]: the binding result is reported as “binds”.

Take SAAMGSAEFEALAALLFLSEE [protG-P1-8 Val13 to alanine]: the binding result is reported as “binds”.

Turning to EGDWLFFVLLVGLL [protG-P1-1 (P1-1 fused to the GB1 domain of streptococcal protein G)], the binding result is on record as “binds”.

Regarding SAAMGSAEFEAAVALLFLSEE [protG-P1-8 Leu12 to alanine], the binding result is on record as “binds”.

(Values after PMC1557813 (Nucleic Acids Research, 2006).)
